Results published in the Immune Epitope Database (IEDB).

Tests used:
[1] = target: HLA-B*35:01; test: IEDB peptide-MHC binding, purified MHC/competitive/radioactivity; filed as Kd, often an IC50 or EC50 that approximates it; ≥ and ≤ were set here for values at or beyond the usual limits of such assays
[2] = target: HLA-B*54:01; test: as above
[3] = target: HLA-B*07:02; test: as above
[4] = target: HLA-B*53:01; test: as above
[5] = target: HLA-B*51:01; test: as above
[6] = target: HLA-B*18:01; test: IEDB peptide-MHC binding, purified MHC/direct/fluorescence; filed as Kd, often an IC50 or EC50 that approximates it; ≥ and ≤ were set here for values at or beyond the usual limits of such assays
[7] = target: HLA-B*40:01; test: as above; conditions: source organism: Mammarenavirus lassaense
[8] = target: HLA-A*02:03; test: IEDB peptide-MHC binding, purified MHC/competitive/radioactivity; filed as Kd, often an IC50 or EC50 that approximates it; ≥ and ≤ were set here for values at or beyond the usual limits of such assays; conditions: source organism: Vaccinia virus WR
[9] = target: HLA-A*02:02; test: as above; conditions: source organism: Vaccinia virus WR
[10] = target: HLA-A*02:06; test: as above; conditions: source organism: Vaccinia virus WR
[11] = target: HLA-A*02:01; test: IEDB peptide-MHC binding, purified MHC/competitive/fluorescence; filed as Kd, often an IC50 or EC50 that approximates it; ≥ and ≤ were set here for values at or beyond the usual limits of such assays
[12] = target: HLA-B*48:01; test: IEDB peptide-MHC binding, purified MHC/direct/fluorescence; filed as Kd, often an IC50 or EC50 that approximates it; ≥ and ≤ were set here for values at or beyond the usual limits of such assays; conditions: source organism: Mammarenavirus lassaense
[13] = target: HLA-B*27:05; test: as above; conditions: source organism: Mammarenavirus lassaense
[14] = target: HLA-A*02:01; test: IEDB peptide-MHC binding, purified MHC/competitive/radioactivity; filed as Kd, often an IC50 or EC50 that approximates it; ≥ and ≤ were set here for values at or beyond the usual limits of such assays; conditions: source organism: Vaccinia virus WR
[15] = target: HLA-B*58:01; test: IEDB peptide-MHC binding, purified MHC/direct/fluorescence; filed as Kd, often an IC50 or EC50 that approximates it; ≥ and ≤ were set here for values at or beyond the usual limits of such assays; conditions: source organism: Entamoeba histolytica HM-1:IMSS
[16] = target: HLA-B*57:01; test: as above; conditions: source organism: Entamoeba histolytica HM-1:IMSS
[17] = source organism: Vaccinia virus WR
[18] = source organism: Triticum aestivum
[19] = source organism: SARS coronavirus Tor2
[20] = source organism: Dengue virus 2 Jamaica/1409/1983

Question: What does the source list for NPTSETMYL?
Answer: Kd [1, 17]: 59.2 nM; Kd [2, 17]: ≥ 37500 nM; Kd [3, 17]: 116 nM; Kd [4, 17]: 4.2 nM; Kd [5, 17]: ≥ 60.7 µM

Question: What does the source list for PEDPVEIAL?
Answer: Kd ([6]; source organism: Mammarenavirus lassaense): ≥ 20000 nM; Kd [7]: 160 nM

Question: Which results are given for QIFNIISYI?
Answer: Kd [8]: 15.1 nM; Kd [9]: 111 nM; Kd [10]: 1.78 nM; Kd ([11]; source organism: Variola virus): 31.1 nM

Question: QPSSQVSF was tested. Which Kd [1, 18] did it give?
Answer: ≥ 23900 nM

Question: And the Kd [2, 18]?
Answer: ≥ 87700 nM

Question: What about the Kd [3, 18] of the same sequence?
Answer: ≥ 26200 nM

Question: What about the Kd [4, 18] of the same sequence?
Answer: ≥ 38300 nM

Question: What about the Kd [5, 18] of the same sequence?
Answer: 2.96 µM

Question: With RKLLESQGR as the sequence, how does the Kd [12] read?
Answer: ≥ 20 µM

Question: And the Kd [13]?
Answer: 451 nM

Question: With RPRFDDAYNI as the sequence, how does the Kd [1, 17] read?
Answer: 15000 nM

Question: And the Kd [2, 17]?
Answer: 2380 nM

Question: What about the Kd [3, 17] of the same sequence?
Answer: 5.26 nM

Question: And the Kd [4, 17]?
Answer: 32.7 nM

Question: And the Kd [5, 17]?
Answer: 3.41 µM

Question: Which Kd ([11]; source organism: Vaccinia virus Ankara) does the source give for RTCSNWVPL here?
Answer: 329 nM

Question: SMRRNYFTAEV was tested. Which Kd ([11]; source organism: Influenza A virus (A/quail/Hong Kong/SF550/00(H6N1))) did it give?
Answer: 1330 nM

Question: SPLFLIVAA was tested. Which Kd [1, 19] did it give?
Answer: 1040 nM

Question: And the Kd [2, 19]?
Answer: 2.52 nM

Question: What about the Kd [3, 19] of the same sequence?
Answer: 481 nM

Question: What about the Kd [4, 19] of the same sequence?
Answer: ≥ 44700 nM

Question: And the Kd [5, 19]?
Answer: 12.1 µM

Question: Which results are given for TPEQKAYVPA?
Answer: Kd [1, 17]: 11000 nM; Kd [2, 17]: 13.3 nM; Kd [3, 17]: 1230 nM; Kd [4, 17]: ≥ 45200 nM; Kd [5, 17]: ≥ 55.2 µM

Question: What does the source list for VPEFAKQYVL?
Answer: Kd [1, 17]: 30.7 nM; Kd [2, 17]: 1860 nM; Kd [3, 17]: 25.8 nM; Kd [4, 17]: 85.2 nM; Kd [5, 17]: 1.55 µM

Question: Which Kd ([5]; source organism: Dengue virus 1 Brazil/97-11/1997) does the source give for VPLLALGCY here?
Answer: 14.9 µM

Question: Which results are given for VPSIKAGNDI?
Answer: Kd [3, 20]: 2130 nM; Kd [4, 20]: ≥ 59800 nM; Kd [5, 20]: 8.47 µM

Question: WEALDTMYV was tested. Which Kd ([6]; source organism: West Nile virus) did it give?
Answer: 556 nM

Question: Which Kd ([1]; source organism: Dengue virus 4 Philippines/H241/1956) does the source give for WHYDQENPY here?
Answer: 1560 nM

Question: For WMMAMRYPITA, which Kd ([11]; source organism: Influenza A virus (A/chicken/Fujian/25/00(H9N2))) is on record?
Answer: 1.5 nM

Question: For WPISKMDIGV, which Kd ([5]; source organism: Dengue virus 1 Singapore/S275/1990) is on record?
Answer: 10.7 µM

Question: Which results are given for YLLFASMGFK?
Answer: Kd [1, 17]: ≥ 69900 nM; Kd [14]: 2570 nM; Kd [3, 17]: ≥ 69600 nM

Question: YLRPYMHGY was tested. Which Kd [15] did it give?
Answer: 12 µM

Question: What about the Kd [16] of the same sequence?
Answer: 5.46 µM

Question: With YPFYVSPTEM as the sequence, how does the Kd [1, 17] read?
Answer: 6.32 nM

Question: What about the Kd [2, 17] of the same sequence?
Answer: 82 nM

Question: And the Kd [3, 17]?
Answer: 2060 nM

Question: And the Kd [4, 17]?
Answer: 446 nM

Question: And the Kd [5, 17]?
Answer: 1.55 µM

Question: YPQPQLPY was tested. Which Kd [1, 18] did it give?
Answer: 249 nM

Question: And the Kd [2, 18]?
Answer: ≥ 54500 nM

Question: And the Kd [3, 18]?
Answer: ≥ 22600 nM

Question: And the Kd [4, 18]?
Answer: 1340 nM

Question: What about the Kd [5, 18] of the same sequence?
Answer: 10.9 µM
